Reference: patent publication US20250255902A1 (published 2025)

What was measured:
Assay in all cases: BLI
Gly1-2-D4 = molecular target: Gly1-2-D4
Gly2-1-F2 = molecular target: Gly2-1-F2
TEA1-E8 = molecular target: TEA1-E8
Gly3-2-C1 = molecular target: Gly3-2-C1

Kd (Gly1-2-D4): 4.46 nM
Kd (Gly2-1-F2): < 1 pM
Kd (TEA1-E8): 0.166 nM
Kd (Gly3-2-C1): 4.88 nM
B1: MSLN (other)
chain: EVEKTACPSGKKAREIDESLIFYKKWELEACVDAALLATQMDRVNAIPFTYEQLDVLKHKLDELYPQGYPESVIQHLGYLFLKMSPEDIRKWNVTSLETLKALLEVNKGHEMSPQVATLIDRFVKGRGQLDKDTLDTLTAFYPGYLCSLSPEELSSVPPSSIWAVRPQDLDTCDPRQLDVLYPKARLAFQNMNGSEYFVKIQSFLGGAPTEDLKALSQQNVSMDLATFMKLRTDAVLPLTVAEVQKLLGPHVEGLKAEERHRPVRDWILRQRQDDLDTLGLGLQG
